In patent publication US20150353628A1 (published 2015) one finds Kd and EC50 data, which are given here for four molecules.

Test [1] addresses T1, pertussis toxin protein (Bordetella pertussis, UniProt P04977 35-269; P04978 28-226; P04979 29-227; P0A3R5 43-152; P04981 35-133).
T1 construct: also called PTx; PT
Put plainly: competition ELISA. In general terms: ELISA stands for enzyme-linked immunosorbent assay.

The target of test [2] is T1, pertussis toxin protein. Put plainly: ELISA, PTx coated, anti-mouse-HRP secondary. An excerpt: Specifically, the pertussis toxin protein was used for coating while anti-mouse-HRP or anti-human Fc-HRP were used as secondary antibodies. TMB(3,3′,5,5′-Tetramethylbenzidine) was used as substrate for the assay.
Test [3] addresses T1, pertussis toxin protein. Nature of the test: pertussis toxin competition assay (ELISA read-out).

B1: murine m11E6 antibody (antibody, V domains shown)
VH: EVKVVESGGGLVQPGGSLRLSCTTSGFTFTDYYVSWVRQPPGKALEWLGFIRNKVNGYTTEFSSSVKGRFTISRDNSQSILYLQMNTLRVEDSATYYCARVSYYGRGWYFDYWGQGTTLTVSS
VL: DIVMTQSTSSLSASLGDRVTISCRASQDIDNYLSWFQQKPDGTVKLLIYYTSRLHSGVPSRFSGSGSGTDYSLTISSLDQEDIATYFCQQGNTFPWTFGGGTKLEIK
notes: also called parental murine 11E6 antibody; mouse 11E6
Take B1: the Kd – broadly, the constant that tells how readily two partners part at equilibrium – with pertussis toxin protein [1] was 5 nM. The midpoint of the response with pertussis toxin protein [2], the EC50, lay at 2.7 nM.

B2: chimeric 11E6 antibody (antibody, V domains shown)
VH: EVKVVESGGGLVQPGGSLRLSCTTSGFTFTDYYVSWVRQPPGKALEWLGFIRNKVNGYTTEFSSSVKGRFTISRDNSQSILYLQMNTLRVEDSATYYCARVSYYGRGWYFDYWGQGTTLTVSS
VL: DIVMTQSTSSLSASLGDRVTISCRASQDIDNYLSWFQQKPDGTVKLLIYYTSRLHSGVPSRFSGSGSGTDYSLTISSLDQEDIATYFCQQGNTFPWTFGGGTKLEIK
notes: also called ch11E6
In turn, B2 displayed a Kd with pertussis toxin protein [1] of 5 nM.

B3: murine m1B7 antibody (antibody, V domains shown)
VH: QVQLQQPGSELVRPGASVKLSCKASGYKFTSYWMHWVKQRPGQGLEWIGNIFPGSGSTNYDEKFNSKATLTVDTSSNTAYMQLSSLTSEDSAVYYCTRWLSGAYFDYWGQGTTLTVSS
VL: QIVLTQSPALMSASPGEKVTMTCSASSSVSFMYWYQQKPRSSPKPWIYLTSNLPSGVPARFSGSGSGTSYSLTISSMEAEDAATYYCQQWSSHPPTFGSGTKLEIK
notes: also called parental murine 1B7 antibody; mouse 1B7
As to B3, the Kd with pertussis toxin protein [1] stood at 0.4 nM; with pertussis toxin protein [3], 0.15 nM. Further, the EC50 (in general, the concentration needed to bring the measured effect to its halfway point) with pertussis toxin protein [2] came out at 0.19 nM.

B4: chimeric 1B7 antibody (antibody, V domains shown)
VH: QVQLQQPGSELVRPGASVKLSCKASGYKFTSYWMHWVKQRPGQGLEWIGNIFPGSGSTNYDEKFNSKATLTVDTSSNTAYMQLSSLTSEDSAVYYCTRWLSGAYFDYWGQGTTLTVSS
VL: QIVLTQSPALMSASPGEKVTMTCSASSSVSFMYWYQQKPRSSPKPWIYLTSNLPSGVPARFSGSGSGTSYSLTISSMEAEDAATYYCQQWSSHPPTFGSGTKLEIK
notes: also called ch1B7
Take B4: the Kd in the test with pertussis toxin protein [1] was 0.5 nM.
